Measurements published in US20170101451.

Experiments:
[1] = system: T1, SDF-1 17AA
T1 sequence: KPVSLSYRCPCRFFESH

[2] = system: SDF-1(L5E)
[3] = system: SDF-1(L5P)
[4] = system: SDF-1(L5W)
[5] = system: SDF-1(S4V)
[6] = system: stromal cell derived factor-1 (SDF-1alpha), unmutated
stromal cell derived factor-1 (SDF-1alpha), unmutated, sequence (chain, as listed by the source, change not shown): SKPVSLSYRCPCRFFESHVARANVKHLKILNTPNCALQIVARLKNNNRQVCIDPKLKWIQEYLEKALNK

matrix metalloproteinase-2 (MMP-2), sequence (P08253 110-660): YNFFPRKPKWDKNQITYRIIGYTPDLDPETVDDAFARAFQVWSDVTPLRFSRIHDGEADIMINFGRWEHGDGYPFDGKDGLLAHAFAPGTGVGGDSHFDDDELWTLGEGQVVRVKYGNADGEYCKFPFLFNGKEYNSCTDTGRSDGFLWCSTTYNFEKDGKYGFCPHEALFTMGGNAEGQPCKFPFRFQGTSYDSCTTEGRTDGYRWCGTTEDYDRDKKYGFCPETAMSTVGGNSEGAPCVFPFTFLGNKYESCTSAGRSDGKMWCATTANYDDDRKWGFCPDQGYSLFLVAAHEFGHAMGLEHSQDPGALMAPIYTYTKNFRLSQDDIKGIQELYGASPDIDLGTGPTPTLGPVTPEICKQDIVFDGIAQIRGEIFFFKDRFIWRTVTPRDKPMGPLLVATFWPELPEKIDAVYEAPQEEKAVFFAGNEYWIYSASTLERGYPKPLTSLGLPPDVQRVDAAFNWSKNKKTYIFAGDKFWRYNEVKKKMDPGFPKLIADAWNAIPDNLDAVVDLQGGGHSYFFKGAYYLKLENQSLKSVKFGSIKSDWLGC
SDF-1(L5E), sequence (chain, as listed by the source): as the sequence (chain, as listed by the source, change not shown) above, with L6E counted along it
SDF-1(L5W), sequence (chain, as listed by the source): as the sequence (chain, as listed by the source, change not shown) above, with L6W counted along it
SDF-1(S4V), sequence (chain, as listed by the source): as the sequence (chain, as listed by the source, change not shown) above, with S5V counted along it
SDF-1(L5P), sequence (chain, as listed by the source): as the sequence (chain, as listed by the source, change not shown) above, with L6P counted along it

**Q.** How did the “cleavage by MMP-2: SDS-PAGE, 2 nmole peptide incubated with MMP-2 for 1 h at RT” value [1] turn out when matrix metalloproteinase-2 (MMP-2) was run?
**A.** Its value is “showing cleavage of SDF-1 17AA”.

**Q.** What about the “cleavage by MMP-2: SDS-PAGE positional shift after one hour incubation” value [2] of the same substance?
**A.** Its value is “unlike SDF-1, the mutants did not undergo a positional shift indicative of cleavage”.

**Q.** And the “cleavage by MMP-2: SDS-PAGE positional shift after one hour incubation” value [3]?
**A.** The value was “unlike SDF-1, the mutants did not undergo a positional shift indicative of cleavage”.

**Q.** And the “cleavage by MMP-2: SDS-PAGE positional shift after one hour incubation” value [4]?
**A.** The value was “unlike SDF-1, the mutants did not undergo a positional shift indicative of cleavage”.

**Q.** And the “cleavage by MMP-2: SDS-PAGE positional shift after one hour incubation” value [5]?
**A.** Its value is “unlike SDF-1, the mutants did not undergo a positional shift indicative of cleavage”.

**Q.** And the “cleavage by MMP-2: SDS-PAGE positional shift after one hour incubation” value [6]?
**A.** Its value is “unlike SDF-1, the mutants did not undergo a positional shift indicative of cleavage”.
